Laboratory results from patent US20220204610A1, “PROTEIN BINDERS FOR IRHOM2” (NEW YORK SOCIETY FOR THE RELIEF OF THE RUPTURED AND …, priority 2019, published 2022).

System: LPS-induced release of endogenous TNFα from human THP-1 macrophage cells
Test: TNFα release (shedding) assay, functional screen of hybridoma supernatants
Assay type: cell-based
Details: supernatants of monoclonal 4H8 sub-clones; assay as in Example 5
Excerpt: After 14 days of culture, supernatants of hybridoma cells were collected and—instead of being selected for iRhom2 binding antibodies—were subjected to an ELISA-based functional screen for iRhom2 activity-neutralizing antibodies. Since the crucial role of iRhom2 in TACE-mediated release of tumor necrosis factor alpha (TNFα) from macrophages is very well established (McIlwein et al., 2012, Adrain et al., 2012, Siggs et al., 2012), the human TNF-alpha DuoSet ELISA (R&D Systems, USA) was employed to compare the lipopolysaccharide (LPS)-induced release of endogenous TNFα from human THP-1 macrophage cells in the presence and absence of all 5280 peptide immunization-derived hybridoma supernatants.
In brief, on day 1, Nunc black MaxiSorp® 96-well plates (Thermo Fisher Scientific, USA) were coated overnight with 100 μl per well of mouse anti-human TNFα capture antibody (provided as part of the DuoSet ELISA kit) at 4 μg/m1 TBS at 4° C. […] Using an infinite M1000 PRO (Tecan Group, Switzerland) microplate reader, the fluorescence of each well was collected at an excitation wavelength of 435 nm and an emission wavelength of 555 nm.
In brief, cells of the hybridoma population 4H8 were counted and the dilution factor to end up with an average of two cells per well of 96-well plates was calculated. […]

B1: 4H8-E3: Mouse IgM monoclonal antibody against the human iRhom2 juxtamembrane domain adjacent to TMD1; HC VD SEQ ID NO 33, LC VD SEQ ID NO 40 (antibody, V domains shown)
VH: EVQLQQSGPELVKPGASVKISCKASGYTFTDYYMNWVKQSHGKSLEWIGDINPNNGGTSYNQKFKGKATLTVDKSSNTAYMEFRSLTSEDSAVYYCARRGYYGVDYWGQGTTLTVSS
VL: NIVMTQSPKSMSMSVGERVTLNCKASENVGTYVSWYQQKPEQSPKLLIFGASNRYTGVPDRFIGSGFATDFTLTISSVQAEDLADYHCGQSYSYPYTFGGGTKLEIK
modifications: IgM constant regions; antibody sequence
inhibitory effect of sub-clone supernatants on LPS-induced release of TNFα from THP-1 cells: significantly interfere
